The results in this text go back to IntAct's records for PubMed 17928862.

B1: Charged multivesicular body protein 1b (Homo sapiens), Q7LBR1 (parent)
chain: MSNMEKHLFNLKFAAKELSRSAKKCDKEEKAEKAKIKKAIQKGNMEVARIHAENAIRQKNQAVNFLRMSARVDAVAARVQTAVTMGKVTKSMAGVVKSMDATLKTMNLEKISALMDKFEHQFETLDVQTQQMEDTMSSTTTLTTPQNQVDMLLQEMADEAGLDLNMELPQGQTGSVGTSVASAEQDELSQRLARLRDQV
partner: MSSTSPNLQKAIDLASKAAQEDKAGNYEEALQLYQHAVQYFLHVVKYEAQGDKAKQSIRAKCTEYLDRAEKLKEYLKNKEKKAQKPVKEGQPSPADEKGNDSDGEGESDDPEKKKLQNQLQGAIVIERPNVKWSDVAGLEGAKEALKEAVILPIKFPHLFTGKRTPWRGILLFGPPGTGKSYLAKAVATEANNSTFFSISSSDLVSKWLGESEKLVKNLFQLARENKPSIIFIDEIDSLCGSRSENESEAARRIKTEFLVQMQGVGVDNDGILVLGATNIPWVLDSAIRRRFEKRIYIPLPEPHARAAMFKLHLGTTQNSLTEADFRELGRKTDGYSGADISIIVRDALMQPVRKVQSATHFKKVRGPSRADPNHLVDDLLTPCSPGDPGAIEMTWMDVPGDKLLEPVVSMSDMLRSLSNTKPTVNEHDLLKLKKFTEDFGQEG
B2: Vacuolar protein sorting-associated protein 4A (Homo sapiens), Q9UN37 (parent)
chain: MTTSTLQKAIDLVTKATEEDKAKNYEEALRLYQHAVEYFLHAIKYEAHSDKAKESIRAKCVQYLDRAEKLKDYLRSKEKHGKKPVKENQSEGKGSDSDSEGDNPEKKKLQEQLMGAVVMEKPNIRWNDVAGLEGAKEALKEAVILPIKFPHLFTGKRTPWRGILLFGPPGTGKSYLAKAVATEANNSTFFSVSSSDLMSKWLGESEKLVKNLFELARQHKPSIIFIDEVDSLCGSRNENESEAARRIKTEFLVQMQGVGNNNDGTLVLGATNIPWVLDSAIRRRFEKRIYIPLPEEAARAQMFRLHLGSTPHNLTDANIHELARKTEGYSGADISIIVRDSLMQPVRKVQSATHFKKVCGPSRTNPSMMIDDLLTPCSPGDPGAMEMTWMDVPGDKLLEPVVCMSDMLRSLATTRPTVNADDLLKVKKFSEDFGQES
partner: B1 chain

The variants in one test derive from B1. To be noted: with vps4b_human VPS4B.
For the variant MSNMEKHLFNLKFAAKELSRSAKKCDKEEKAEKAKIKKAIQKGNMEVARIHAENAIRQKNQAVNFLRMSARVDAVAARVQTAVTMGKVTKSMAGVVKSMDATLKTMNLEKISALMDKFEHQFETLDVQTQQMEDTMSSTTTLTTPQNQVDMLLQEMADEAGLDLNMELPQGQTGSVGTSVASAEQDELSQRAARLRDQV, the “effect of a mutation on the interaction” value is “decreasing interaction strength”.

Turning to MSNMEKHLFNLKFAAKELSRSAKKCDKEEKAEKAKIKKAIQKGNMEVARIHAENAIRQKNQAVNFLRMSARVDAVAARVQTAVTMGKVTKSMAGVVKSMDATLKTMNLEKISALMDKFEHQFETLDVQTQQMEDTMSSTTTLTTPQNQVDMLLQEMADEAGLDLNMELPQGQTGSVGTSVASAEQDEASQRLARLRDQV, the “effect of a mutation on the interaction” value is “decreasing interaction strength”.

Variants of B2 are the subject of another test. As to conditions: with chm1b_human CHMP1B.
On to MTTSTLQKAIDLVTKATEEDKAKNYEEALRLYQHAVEYFLHAIKYEAHSDKAKESIRAKCVQYDDRAEKLKDYLRSKEKHGKKPVKENQSEGKGSDSDSEGDNPEKKKLQEQLMGAVVMEKPNIRWNDVAGLEGAKEALKEAVILPIKFPHLFTGKRTPWRGILLFGPPGTGKSYLAKAVATEANNSTFFSVSSSDLMSKWLGESEKLVKNLFELARQHKPSIIFIDEVDSLCGSRNENESEAARRIKTEFLVQMQGVGNNNDGTLVLGATNIPWVLDSAIRRRFEKRIYIPLPEEAARAQMFRLHLGSTPHNLTDANIHELARKTEGYSGADISIIVRDSLMQPVRKVQSATHFKKVCGPSRTNPSMMIDDLLTPCSPGDPGAMEMTWMDVPGDKLLEPVVCMSDMLRSLATTRPTVNADDLLKVKKFSEDFGQES [L64D], for which the “effect of a mutation on the interaction” value is reported as “disrupting interaction strength”.

For the variant MTTSTLQKAIDLVTKATEEDKAKNYEEALRLYQHAVEYFLHAIKYEAHSDKAKESIRAKCVQYADRAEKLKDYLRSKEKHGKKPVKENQSEGKGSDSDSEGDNPEKKKLQEQLMGAVVMEKPNIRWNDVAGLEGAKEALKEAVILPIKFPHLFTGKRTPWRGILLFGPPGTGKSYLAKAVATEANNSTFFSVSSSDLMSKWLGESEKLVKNLFELARQHKPSIIFIDEVDSLCGSRNENESEAARRIKTEFLVQMQGVGNNNDGTLVLGATNIPWVLDSAIRRRFEKRIYIPLPEEAARAQMFRLHLGSTPHNLTDANIHELARKTEGYSGADISIIVRDSLMQPVRKVQSATHFKKVCGPSRTNPSMMIDDLLTPCSPGDPGAMEMTWMDVPGDKLLEPVVCMSDMLRSLATTRPTVNADDLLKVKKFSEDFGQES [L64A], the “effect of a mutation on the interaction” value is “decreasing interaction strength”.
